Experimental findings from publication PMC4520562 (PLoS ONE, 2015) are described below.

Like-named read-outs stand apart in the source and are kept apart here.

In experiment [1] the target is A/Taiwan/2/2013(H6N1) hemagglutinin ectodomain, trypsin-cleaved into HA1 and HA2 (influenza A virus A/Taiwan/2/2013(H6N1)). As to the kind of experiment: crystal structure.
For experiment [2], the target named is GD H6 HA (Influenza A virus (A/chicken/Guangdong/S1311/2010(H6N6)), UniProt A0A067YZV9). Particulars: 2 h, pH 8.0, receptor-binding site.
Experiment [3] addresses A/chicken/Guangdong/S1311/2010(H6N6) hemagglutinin ectodomain, trypsin-cleaved into HA1 and HA2 (influenza A virus A/chicken/Guangdong/S1311/2010(H6N6)). Put plainly: crystal structure.

As usually defined, the stoichiometry N is a count of units in the complex or per binding partner. In experiment [1], “A/Taiwan/2/2013(H6N1) hemagglutinin ectodomain, trypsin-cleaved into HA1 and HA2 (domain or fragment)” showed a stoichiometry N of 3.

Take `CC(=O)N[C@H]1[C@H](O[C@H]2[C@@H](O)[C@@H](CO)O[C@@H](O[C@H]3[C@H](O)[C@@H](O)C(O)O[C@@H]3CO)[C@@H]2O)O[C@H](CO)[C@@H](O[C@@H]2O[C@H](CO[C@]3(C(=O)O)C[C@H](O)[C@@H](NC(C)=O)[C@H]([C@H](O)[C@H](O)CO)O3)[C@H](O)[C@H](O)[C@H]2O)[C@@H]1O` (stereo partly shown) [LSTc]: the “X-ray crystal structure of complex” value in experiment [2] (crystal soaked with 5 mM LSTc, first two sugars visible) is on record as “only the first two sugar rings are clearly visible in the complex structure of GD H6 HA-LSTc”.

Take `CC(=O)N[C@H]1[C@H](O[C@H]2[C@@H](O)[C@@H](CO)O[C@@H](O[C@H]3[C@H](O)[C@@H](O)C(O)O[C@@H]3CO)[C@@H]2O)O[C@H](CO)[C@@H](O)[C@@H]1O[C@@H]1O[C@H](CO)[C@H](O)[C@H](O[C@]2(C(=O)O)C[C@H](O)[C@@H](NC(C)=O)[C@H]([C@H](O)[C@H](O)CO)O2)[C@H]1O` (stereo partly shown) [LSTa]: the “X-ray crystal structure of complex” value in experiment [2] (crystal soaked with 5 mM LSTa, first three sugars visible) was “Gal-2 and GlcNAc-3 of the LSTa are clearly visualized in both GD and TW H6 HA”.

With “A/chicken/Guangdong/S1311/2010(H6N6) hemagglutinin ectodomain, trypsin-cleaved into HA1 and HA2 (domain or fragment)”, the stoichiometry N in experiment [3] was 3.
